These results are taken from US20190330347A1 (published 2019).

As usually defined, the Kd is the constant that tells how readily two partners part at equilibrium.

This assay deals with biotin-labeled PD-1 antigen (UniProt Q15116 25-167, biotin-labeled (site not stated)). The experiment in a line: BLI (Fortebio). In general terms: BLI is a label-free optical method that tracks binding on a fibre tip over time.
biotin-labeled PD-1 antigen, sequence (Q15116 25-167): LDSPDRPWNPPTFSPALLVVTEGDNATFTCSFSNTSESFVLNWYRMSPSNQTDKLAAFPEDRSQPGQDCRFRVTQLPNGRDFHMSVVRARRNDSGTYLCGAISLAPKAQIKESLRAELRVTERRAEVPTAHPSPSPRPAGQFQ

B1: humanized H8L2 antibody (IgG-like antibody H8L2 against PD-1) (antibody)
heavy: EVQLVQSGGGLVQPGGSLKLSCAASGFTFSSYGMSWVRQAPGKGLDWVATISGGGRDTYYPDSVKGRFTISRDNSKNNLYLQMNSLRAEDTALYYCARQKGEAWFAYWGQGTLVTVSSASTKGPSVFPLAPCSRSTSESTAALGCLVKDYFPEPVTVSWNSGALTSGVHTFPAVLQSSGLYSLSSVVTVPSSSLGTKTYTCNVDHKPSNTKVDKRVESKYGPPCPPCPAPEFLGGPSVFLFPPKPKDTLMITRTPEVTCVVVDVSQEDPEVQFNWYVDGVEVHNAKTKPREEQFNSTYRVVSVLTPLHQDWLNGKEYKCKVSNKGLPSSIEKTISKAKGQPREPQVYTLPPSQEEMTKNQVSLTCLVKGFYPSDIAVEWESNGQPENNYKTTPPVLDSDGSFFLYSRLTVDKSRWQEGNVFSCSVMHEALHAHYTQKSLSLSLGK
light: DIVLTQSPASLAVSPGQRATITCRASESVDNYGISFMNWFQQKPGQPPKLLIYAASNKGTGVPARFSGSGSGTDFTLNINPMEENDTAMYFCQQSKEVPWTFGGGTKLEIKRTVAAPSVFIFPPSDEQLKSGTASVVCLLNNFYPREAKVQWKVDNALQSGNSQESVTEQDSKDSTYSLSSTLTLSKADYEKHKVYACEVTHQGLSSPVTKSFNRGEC
Take B1: binding was put at a Kd of 0.103 nM.
